# From patent publication US20250152742A1, “COMPOSITIONS AND METHODS FOR NEUROLOGICAL DISEASES” (Trames Bio, Inc., priority 2022, published 2025)
# System: engineered chimeric receptor SEQ ID NO: 33 and its mutants (human α7-nAChR ligand binding domain / human GlyRα1 ion pore domain) in Lenti-X 293T cells
# Assay: YFP fluorescence quenching anion reporter plate reader assay (percent quench, EC50)
# Type: cell-based
# Details: for YFP fluorescence quenching using CNL001 (percent quench): receptor named in row; for YFP fluorescence quenching using Varenicline, 3 nM var: ligand Varenicline 3 nM; for YFP fluorescence quenching using Varenicline, 30 nM var: ligand Varenicline 30 nM; for YFP fluorescence quenching using Varenicline, 300 nM var: ligand Varenicline 300 nM; for YFP fluorescence quenching using Varenicline, 500 nM var: ligand Varenicline 500 nM; for YFP fluorescence quenching using Varenicline, 1 uM var: ligand Varenicline 1 uM
# How it was run: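 Lenti-X 293T cells co-expressing an anion-quenchable YFP were transiently transfected with receptor DNA, then ligand was added in NaI-substituted buffer (pH 7.2) after 30 min at 37 °C. Fluorescence was read about 2 min; percent quench = mean of last 10 s over 15 s pre-ligand baseline.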
molecule,measurement,setting,value
"CODA1039: engineered receptor: Y115E, Y210W in SEQ ID NO: 33 (protein, synthetic sequence of chimeric LGIC) MRCSPGGVWLALAASLLHVSLQGEFQRKLYKELVKNYNPLERPVANDSQPLTVYFSLSLLQIMDVDEKNQVLTTNIWLQMSWTDHYLQWNVSEYPGVKTVRFPDGQIWKPDILLENSADERFDATFHTNVLVNSSGHCQYLPPGIFKSSCPMDLKNFPMDVQTCKLKFGSWSYGGWSLDLQMQEADISGYIPNGEWDLVGIPGKRSERFWECCKEPYPDVTFTVTMRRRMGYYLIQMYIPSLLIVILSWISFWINMDAAPARVGLGITTVLTMTTQSSGSRASLPKVSYVKAIDIWMAVCLLFVFSALLEYAAVNFVSRQHKELLRFRRKRRHHKSPMLNLFQEDEAGEGRFNFSAYGMGPACLQAKDGISVKGANNSNTTNPPPAPSKSPEEMRKLFIQRAKKIDKISRIGFPMAFLIFNMFYWIIYKIVRREDVHNQ",YFP fluorescence quenching using CNL001 (percent quench),"1 nM CNL001, first column so headed",−1.12%
same,YFP fluorescence quenching using CNL001 (percent quench),"1 nM CNL001, second column so headed",−3.941%
same,YFP fluorescence quenching using TC-5619/Bradanicline (percent quench),1 nM brd (TC-5619/Bradanicline),−5.55%
same,YFP fluorescence quenching using TC-5619/Bradanicline (percent quench),3 nM brd (TC-5619/Bradanicline),6.78%
same,YFP fluorescence quenching using CNL001 (percent quench),"10 nM CNL001, first column so headed",6.275%
same,YFP fluorescence quenching using CNL001 (percent quench),"10 nM CNL001, second column so headed",11.943%
same,YFP fluorescence quenching using TC-5619/Bradanicline (percent quench),10 nM brd (TC-5619/Bradanicline),−2.7%
same,YFP fluorescence quenching using TC-6683 (percent quench),30 nM TC-6683,−1.608%
same,YFP fluorescence quenching using TC-5619/Bradanicline (percent quench),30 nM brd (TC-5619/Bradanicline),34.43%
same,YFP fluorescence quenching using CNL001 (percent quench),"50 nM CNL001, first column so headed",12.949%
same,YFP fluorescence quenching using CNL001 (percent quench),"50 nM CNL001, second column so headed",18.635%
same,YFP fluorescence quenching using ABT-126 (percent quench),50 nM abt (ABT-126),−17.32%
same,YFP fluorescence quenching using CNL001 (percent quench),"100 nM CNL001, first column so headed",17.576%
same,YFP fluorescence quenching using CNL001 (percent quench),"100 nM CNL001, second column so headed",18.319%
same,YFP fluorescence quenching (percent quench),100 nM CNL002,21.85%
same,YFP fluorescence quenching using ABT-126 (percent quench),100 nM abt (ABT-126),−13.93%
same,YFP fluorescence quenching using AZD-0328 (percent quench),100 nM azd0328,−10.45%
same,YFP fluorescence quenching using TC-6683 (percent quench),300 nM TC-6683,−3.491%
same,YFP fluorescence quenching using ABT-126 (percent quench),300 nM abt (ABT-126),9.9%
same,YFP fluorescence quenching using AZD-0328 (percent quench),300 nM azd0328,−13%
same,YFP fluorescence quenching using TC-5619/Bradanicline (percent quench),300 nM brd (TC-5619/Bradanicline),70.05%
same,YFP fluorescence quenching using ABT-126 (percent quench),500 nM abt (ABT-126),36.97%
same,YFP fluorescence quenching using CNL001 (percent quench),"1 uM CNL001, first column so headed",19.329%
same,YFP fluorescence quenching using CNL001 (percent quench),"1 uM CNL001, second column so headed",20.672%
same,YFP fluorescence quenching (percent quench),1 uM CNL002,47.37%
same,YFP fluorescence quenching using ABT-126 (percent quench),1 uM abt (ABT-126),48.37%
same,YFP fluorescence quenching using TC-6683 (percent quench),3 uM TC-6683,−6.153%
same,YFP fluorescence quenching using ABT-126 (percent quench),3 uM abt (ABT-126),50.5%
same,YFP fluorescence quenching using ABT-126 (percent quench),10 uM abt (ABT-126),58.13%
same,YFP fluorescence quenching (percent quench),10 uM ach (acetylcholine),−2.97%
same,YFP fluorescence quenching (percent quench),30 uM CNL002,59.97%
same,YFP fluorescence quenching using TC-6683 (percent quench),30 uM TC-6683,−9.263%
same,YFP fluorescence quenching using ABT-126 (percent quench),30 uM abt (ABT-126),64.1%
same,YFP fluorescence quenching using AZD-0328 (percent quench),30 uM azd0328,30.76%
same,YFP fluorescence quenching using ABT-126 (percent quench),50 uM abt (ABT-126),66.67%
same,YFP fluorescence quenching (percent quench),50 uM ach (acetylcholine),−3.94%
same,YFP fluorescence quenching using TC-6683 (percent quench),100 uM TC-6683,−9.19%
same,YFP fluorescence quenching using ABT-126 (percent quench),100 uM abt (ABT-126),68.63%
same,YFP fluorescence quenching (percent quench),100 uM ach (acetylcholine),0.35%
same,YFP fluorescence quenching (percent quench),300 uM ach (acetylcholine),−4.13%
same,YFP fluorescence quenching (percent quench),500 uM ach (acetylcholine),−5.18%
same,YFP fluorescence quenching (percent quench),1 mM ach (acetylcholine),1.21%
same,YFP fluorescence quenching (percent quench),3 mM ach (acetylcholine),26.69%
same,"YFP fluorescence quenching using Facinicline, 30 nM fac",ligand Facinicline 30 nM,−13.46
same,"YFP fluorescence quenching using Facinicline, 300 nM fac",ligand Facinicline 300 nM,5.43
same,"YFP fluorescence quenching using Facinicline, 30 uM fac",ligand Facinicline 30 uM,49.06
same,"YFP fluorescence quenching using TC-6987, 1 uM tc6987",ligand TC-6987 1 uM,7.26
same,"YFP fluorescence quenching using TC-6987, 10 uM tc6987",ligand TC-6987 10 uM,11
same,"YFP fluorescence quenching using TC-6987, 500 uM tc6987",ligand TC-6987 500 uM,7.97
same,"YFP fluorescence quenching using Varenicline, 3 nM var",first column,−10.926
same,"YFP fluorescence quenching using Varenicline, 3 nM var",second column,−7.395
same,"YFP fluorescence quenching using Varenicline, 30 nM var",first column,−5.661
same,"YFP fluorescence quenching using Varenicline, 30 nM var",second column,−1.244
same,"YFP fluorescence quenching using Varenicline, 300 nM var",first column,−4.555
same,"YFP fluorescence quenching using Varenicline, 300 nM var",second column,1.081
same,"YFP fluorescence quenching using Varenicline, 500 nM var",first column,9.172
same,"YFP fluorescence quenching using Varenicline, 500 nM var",second column,12.561
same,"YFP fluorescence quenching using Varenicline, 1 uM var",first column,7.139
same,"YFP fluorescence quenching using Varenicline, 1 uM var",second column,12.664
